Legend:
Assay in all cases: flow cytometry, IgG on cells expressing the mutant
human CD33 variant I47F = human CD33 variant I47F (human, UniProt P20138 18-364)
Procedure: (§1) An alanine scan on human CD33 was performed to the determine the residues on CD33 that are involved in binding to the antibodies investigated. […] Briefly, a mutation library of CD33 was created by high-throughput, site-directed mutagenesis. Each residue was individually mutated to alanine, with alanine codons mutated to serine. The mutant library was arrayed in 384-well microplates and transiently transfected into HEK293-T. Following transfection, cells were incubated with the indicated antibodies (IgG or Fab) at concentrations pre-determined using an independent immunofluorescence titration curve on wild type CD33. […] Binding of each antibody to each mutant clone was determined in duplicates. For each point, background fluorescence was subtracted from the raw data, which were then normalized to antibody reactivity with wild type CD33.
(§2) Antibodies were screened for binding to the human CD33 variants in IgG format. […] For each mutation, background fluorescence was subtracted from the raw data, which were then normalized to antibody reactivity with wild-type CD33.

human CD33 variant K52D = human CD33 variant K52D (human, UniProt P20138 18-364)
Procedure: as §1, §2

human CD33 variant Y129S = human CD33 variant Y129S (human, UniProt P20138 18-364)
Procedure: as §1, §2

human CD33 variant K52F = human CD33 variant K52F (human, UniProt P20138 18-364)
Procedure: as §1, §2

human CD33 variant S131G = human CD33 variant S131G (human, UniProt P20138 18-364)
Procedure: as §1, §2

human CD33 variant Y50G = human CD33 variant Y50G (human, UniProt P20138 18-364)
Procedure: as §1, §2

human CD33 variant P48S = human CD33 variant P48S (human, UniProt P20138 18-364)
Procedure: as §1, §2

human CD33 variant I47P = human CD33 variant I47P (human, UniProt P20138 18-364)
Procedure: as §1, §2

human CD33 variant Y50L = human CD33 variant Y50L (human, UniProt P20138 18-364)
Procedure: as §1, §2

human CD33 variant Y50S = human CD33 variant Y50S (human, UniProt P20138 18-364)
Procedure: as §1, §2

human CD33 variant V56R = human CD33 variant V56R (human, UniProt P20138 18-364)
Procedure: as §1, §2

human CD33 variant R122I = human CD33 variant R122I (human, UniProt P20138 18-364)
Procedure: as §1, §2

human CD33 variant K52G = human CD33 variant K52G (human, UniProt P20138 18-364)
Procedure: as §1, §2

human CD33 variant P48Q = human CD33 variant P48Q (human, UniProt P20138 18-364)
Procedure: as §1, §2

human CD33 variant Y49L = human CD33 variant Y49L (human, UniProt P20138 18-364)
Procedure: as §1, §2

human CD33 variant M120I = human CD33 variant M120I (human, UniProt P20138 18-364)
Procedure: as §1, §2

human CD33 variant R122F = human CD33 variant R122F (human, UniProt P20138 18-364)
Procedure: as §1, §2

human CD33 variant K52T = human CD33 variant K52T (human, UniProt P20138 18-364)
Procedure: as §1, §2

human CD33 variant R122T = human CD33 variant R122T (human, UniProt P20138 18-364)
Procedure: as §1, §2

human CD33 variant D51K = human CD33 variant D51K (human, UniProt P20138 18-364)
Procedure: as §1, §2

human CD33 variant P48N = human CD33 variant P48N (human, UniProt P20138 18-364)
Procedure: as §1, §2

human CD33 variant Y127R = human CD33 variant Y127R (human, UniProt P20138 18-364)
Procedure: as §1, §2

human CD33 variant Y49G = human CD33 variant Y49G (human, UniProt P20138 18-364)
Procedure: as §1, §2

human CD33 variant P48M = human CD33 variant P48M (human, UniProt P20138 18-364)
Procedure: as §1, §2

human CD33 variant R122G = human CD33 variant R122G (human, UniProt P20138 18-364)
Procedure: as §1, §2

human CD33 variant P48V = human CD33 variant P48V (human, UniProt P20138 18-364)
Procedure: as §1, §2

human CD33 variant Y50N = human CD33 variant Y50N (human, UniProt P20138 18-364)
Procedure: as §1, §2

human CD33 variant I47Q = human CD33 variant I47Q (human, UniProt P20138 18-364)
Procedure: as §1, §2

human CD33 variant P48Y = human CD33 variant P48Y (human, UniProt P20138 18-364)
Procedure: as §1, §2

human CD33 variant Y49R = human CD33 variant Y49R (human, UniProt P20138 18-364)
Procedure: as §1, §2

human CD33 variant I47Y = human CD33 variant I47Y (human, UniProt P20138 18-364)
Procedure: as §1, §2

human CD33 variant K52E = human CD33 variant K52E (human, UniProt P20138 18-364)
Procedure: as §1, §2

human CD33 variant Y50Q = human CD33 variant Y50Q (human, UniProt P20138 18-364)
Procedure: as §1, §2

human CD33 variant P48F = human CD33 variant P48F (human, UniProt P20138 18-364)
Procedure: as §1, §2

human CD33 variant K52L = human CD33 variant K52L (human, UniProt P20138 18-364)
Procedure: as §1, §2

human CD33 variant R122E = human CD33 variant R122E (human, UniProt P20138 18-364)
Procedure: as §1, §2

Chain of human CD33 variant S131G (P20138 18-364 S131G limits assumed): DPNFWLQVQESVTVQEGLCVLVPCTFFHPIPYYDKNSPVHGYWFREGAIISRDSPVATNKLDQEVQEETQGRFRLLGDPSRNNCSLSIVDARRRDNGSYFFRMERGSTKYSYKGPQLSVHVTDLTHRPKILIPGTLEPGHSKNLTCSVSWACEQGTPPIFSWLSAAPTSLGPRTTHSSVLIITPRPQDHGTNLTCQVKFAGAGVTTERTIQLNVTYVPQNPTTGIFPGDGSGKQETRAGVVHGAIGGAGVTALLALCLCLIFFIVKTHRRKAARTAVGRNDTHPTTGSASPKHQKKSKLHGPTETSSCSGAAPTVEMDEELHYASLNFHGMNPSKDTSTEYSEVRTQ
Chain of human CD33 variant P48M (P20138 18-364 P48M limits assumed): as the sequence (P20138 18-364 S131G limits assumed) above, with P31M, G114S counted along it
Chain of human CD33 variant Y50G (P20138 18-364 Y50G limits assumed): as the sequence (P20138 18-364 S131G limits assumed) above, with Y33G, G114S counted along it
Chain of human CD33 variant I47Y (P20138 18-364 I47Y limits assumed): as the sequence (P20138 18-364 S131G limits assumed) above, with I30Y, G114S counted along it
Chain of human CD33 variant Y50S (P20138 18-364 Y50S limits assumed): as the sequence (P20138 18-364 S131G limits assumed) above, with Y33S, G114S counted along it
Chain of human CD33 variant P48V (P20138 18-364 P48V limits assumed): as the sequence (P20138 18-364 S131G limits assumed) above, with P31V, G114S counted along it
Chain of human CD33 variant K52T (P20138 18-364 K52T limits assumed): as the sequence (P20138 18-364 S131G limits assumed) above, with K35T, G114S counted along it
Chain of human CD33 variant Y127R (P20138 18-364 Y127R limits assumed): as the sequence (P20138 18-364 S131G limits assumed) above, with Y110R, G114S counted along it
Chain of human CD33 variant K52F (P20138 18-364 K52F limits assumed): as the sequence (P20138 18-364 S131G limits assumed) above, with K35F, G114S counted along it
Chain of human CD33 variant K52D (P20138 18-364 K52D limits assumed): as the sequence (P20138 18-364 S131G limits assumed) above, with K35D, G114S counted along it
Chain of human CD33 variant Y49G (P20138 18-364 Y49G limits assumed): as the sequence (P20138 18-364 S131G limits assumed) above, with Y32G, G114S counted along it
Chain of human CD33 variant Y50Q (P20138 18-364 Y50Q limits assumed): as the sequence (P20138 18-364 S131G limits assumed) above, with Y33Q, G114S counted along it
Chain of human CD33 variant Y49R (P20138 18-364 Y49R limits assumed): as the sequence (P20138 18-364 S131G limits assumed) above, with Y32R, G114S counted along it
Chain of human CD33 variant D51K (P20138 18-364 D51K limits assumed): as the sequence (P20138 18-364 S131G limits assumed) above, with D34K, G114S counted along it

B1: Refmab #4 (antibody, human IgG1, V domains shown)
VH: QVQLVQSGAEVKKPGESVKVSCKASGYTFTNYGMNWVKQAPGQGLEWMGWINTYTGEPTYADKFQGRVTMTTDTSTSTAYMEIRNLGGDDTAVYYCARWSWSDGYYVYFDYWGQGTSVTVSS
VL: DIVMTQSPDSLTVSLGERTTINCKSSQSVLDSSTNKNSLAWYQQKPGQPPKLLLSWASTRESGIPDRFSGSGSGTDFTLTIDSPQPEDSATYYCQQSAHFPITFGQGTRLEIK
notes: Tested in IgG format; human IgG1 Fc silent (PG-LALA)
B1 was tested, and the “Mean % WT Binding” value (human CD33 variant I47F) was 102 % of WT, the “Mean % WT Binding” value (human CD33 variant K52D) was 9.4 % of WT and the “Mean % WT Binding” value (human CD33 variant Y129S) was 107 % of WT. For the same binder, the “Mean % WT Binding” value (human CD33 variant K52F) was 3.5 % of WT, the “Mean % WT Binding” value (human CD33 variant S131G) was 96.9 % of WT and the “Mean % WT Binding” value (human CD33 variant Y50G) was 4 % of WT. The “Mean % WT Binding” value (human CD33 variant P48S) was 0.5 % of WT, the “Mean % WT Binding” value (human CD33 variant I47P) was 49 % of WT and the “Mean % WT Binding” value (human CD33 variant Y50L) was 1.9 % of WT. The “Mean % WT Binding” value (human CD33 variant Y50S) was 2.9 % of WT, the “Mean % WT Binding” value (human CD33 variant V56R) was 99.4 % of WT and the “Mean % WT Binding” value (human CD33 variant R122I) was 85.8 % of WT. For the same binder, the “Mean % WT Binding” value (human CD33 variant K52G) was 69.5 % of WT, the “Mean % WT Binding” value (human CD33 variant P48Q) was 2.1 % of WT and the “Mean % WT Binding” value (human CD33 variant Y49L) was 110 % of WT. For the same binder, the “Mean % WT Binding” value (human CD33 variant M120I) was 101 % of WT, the “Mean % WT Binding” value (human CD33 variant R122F) was 58.1 % of WT and the “Mean % WT Binding” value (human CD33 variant K52T) was 83.5 % of WT. For the same binder, the “Mean % WT Binding” value (human CD33 variant R122T) was 93.2 % of WT, the “Mean % WT Binding” value (human CD33 variant D51K) was 42 % of WT and the “Mean % WT Binding” value (human CD33 variant P48N) was 3.8 % of WT. The “Mean % WT Binding” value (human CD33 variant Y127R) was 116 % of WT, the “Mean % WT Binding” value (human CD33 variant Y49G) was 54.9 % of WT and the “Mean % WT Binding” value (human CD33 variant P48M) was 1.3 % of WT. For the same binder, the “Mean % WT Binding” value (human CD33 variant R122G) was 91.3 % of WT, the “Mean % WT Binding” value (human CD33 variant P48V) was 88.5 % of WT and the “Mean % WT Binding” value (human CD33 variant Y50N) was 2.3 % of WT. The “Mean % WT Binding” value (human CD33 variant I47Q) was 80.1 % of WT, the “Mean % WT Binding” value (human CD33 variant P48Y) was 0.6 % of WT and the “Mean % WT Binding” value (human CD33 variant Y49R) was 55.7 % of WT. The “Mean % WT Binding” value (human CD33 variant I47Y) was 96 % of WT, the “Mean % WT Binding” value (human CD33 variant K52E) was 51.4 % of WT and the “Mean % WT Binding” value (human CD33 variant Y50Q) was 3.2 % of WT. The “Mean % WT Binding” value (human CD33 variant P48F) was 0.3 % of WT, the “Mean % WT Binding” value (human CD33 variant K52L) was 88.1 % of WT and the “Mean % WT Binding” value (human CD33 variant R122E) was 79.2 % of WT.

Reference: patent publication US20260242735A1 (UNIVERSIT T BASEL, published 2026)
